Test results from patent publication US20220242950A1 (CANTARGIA, published 2022).

T1: recombinant mf IL1RAP aa21-367 (cynomolgus monkey (Macaca fascicularis), UniProt A0A2K5X5J5 21-367)
T1 construct: also called cynomolgus monkey IL1RAP; cyno IL1RAP
T1 sequence: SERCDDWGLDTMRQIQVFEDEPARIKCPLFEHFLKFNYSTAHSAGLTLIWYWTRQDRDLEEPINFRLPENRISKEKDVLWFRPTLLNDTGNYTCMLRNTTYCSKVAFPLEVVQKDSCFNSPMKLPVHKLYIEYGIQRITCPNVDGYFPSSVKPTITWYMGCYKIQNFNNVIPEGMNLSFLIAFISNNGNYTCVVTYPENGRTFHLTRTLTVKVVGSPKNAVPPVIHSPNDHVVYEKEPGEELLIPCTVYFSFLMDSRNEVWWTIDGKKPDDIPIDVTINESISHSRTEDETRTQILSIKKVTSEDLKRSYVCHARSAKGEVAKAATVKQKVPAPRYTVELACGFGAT

T2: recombinant hIL1RAP Domain1+2+3 (aa21-367) (human, UniProt Q9NPH3 21-367)
T2 construct: Numbering on Uniprot Q9NPH3
T2 sequence (looked up): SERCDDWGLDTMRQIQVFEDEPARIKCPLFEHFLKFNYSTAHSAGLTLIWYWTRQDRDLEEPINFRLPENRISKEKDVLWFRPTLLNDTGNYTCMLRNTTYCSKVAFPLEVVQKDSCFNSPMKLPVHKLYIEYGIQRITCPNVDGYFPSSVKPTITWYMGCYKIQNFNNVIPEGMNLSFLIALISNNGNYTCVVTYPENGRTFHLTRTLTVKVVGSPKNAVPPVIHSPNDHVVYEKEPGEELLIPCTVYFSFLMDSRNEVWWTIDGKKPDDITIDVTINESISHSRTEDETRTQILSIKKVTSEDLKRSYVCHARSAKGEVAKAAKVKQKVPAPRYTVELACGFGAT

T3: human IL1RAP on the cell surface (human, UniProt Q9NPH3 21-570)
T3 sequence (looked up): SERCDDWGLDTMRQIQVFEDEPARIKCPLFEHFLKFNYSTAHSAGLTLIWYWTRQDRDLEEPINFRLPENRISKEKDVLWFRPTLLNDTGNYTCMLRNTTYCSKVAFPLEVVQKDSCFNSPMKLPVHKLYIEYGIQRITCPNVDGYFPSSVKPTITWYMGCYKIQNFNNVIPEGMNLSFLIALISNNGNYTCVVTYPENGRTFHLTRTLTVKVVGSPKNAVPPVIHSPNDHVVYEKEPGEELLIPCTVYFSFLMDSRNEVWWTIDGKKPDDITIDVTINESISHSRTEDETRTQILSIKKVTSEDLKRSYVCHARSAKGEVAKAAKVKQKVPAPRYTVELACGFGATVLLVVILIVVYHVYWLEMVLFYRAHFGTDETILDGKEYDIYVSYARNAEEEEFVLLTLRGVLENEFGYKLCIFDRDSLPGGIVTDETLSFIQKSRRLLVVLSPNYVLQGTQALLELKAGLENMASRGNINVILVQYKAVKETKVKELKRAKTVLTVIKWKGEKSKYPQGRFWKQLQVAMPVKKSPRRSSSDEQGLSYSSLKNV


Tests used:
[1] = molecular target: T1, recombinant mf IL1RAP aa21-367; test: binding ELISA, coated recombinant mf IL1RAP aa21-367
[2] = molecular target: T2, recombinant hIL1RAP Domain1+2+3 …; test: binding ELISA, coated recombinant hIL1RAP aa21-367
[3] = molecular target: T3, human IL1RAP on the cell surface; test: cell-based or functional assay
[4] = molecular target: T2, recombinant hIL1RAP Domain1+2+3 …; test: bio-layer interferometry, human IL1RAP
Method: Affinity measurements were done on BLItz™ Label-Free Protein Analysis System from ForteBio, using the Basic Kinetics module in the BLItz Pro 1.3.1.3 software from Molecular Devices. Protein A biosensors were hydrated in blocking buffer (PBS, 0.5% BSA, 0.05% Tween 20, pH 7.4) for minimum 10 min at room temperature before coating. Protein A biosensors were coated with antibodies by dipping the biosensors in 200 μl of antibody solution (10 μg/ml in blocking buffer) for 30 min at room temperature. The sensors were then incubated in 200 μl blocking buffer for at least 10 min before use. […] The baseline was made in blocking buffer with a duration time of 30 sec. Association was made for 120 sec in hIL1RAP followed by 120 sec dissociation in blocking buffer.
The antibodies were characterized for A) binding (ELISA analysis, human and cynomolgus monkey IL1RAP), B) inhibition of cytokine signaling (HEK-Blue™ assay), C) affinity (Bio-layer interferometry), D) size heterogeneity (SE-HPLC) and E) yield (concentration, A280). […] SE-HPLC was performed using standard procedures and PBS as running buffer. Affinity and cytokine inhibition were measured as previously described in Example 10. All 25 humanized clones were analyzed for blocking activity on IL-1α, IL-1β and IL-33 signaling while only the clones that had retained the inhibitory activity similar to chimeric 48D2 were analyzed for IL-36 inhibition.
KD values for affinity towards human IL1RAP are shown in Table 11 for the humanized 48D2 variants. Affinity was measured using bio-layer interferometry. […] See also Table 4 for a direct comparison of chimeric 48D2, humanized 48D2 variant VH5:VL4, and a humanized and de-immunized 48D2 variant VH5.GL:VL4.

Binder | IC50 [1] | IC50 [2] | IC50 of IL-1α signaling (HEK-Blue assay) [3] | IC50 of IL-33 signaling (HEK-Blue assay) [3] | IC50 of IL-36β signaling (HEK-Blue assay) [3] | IC50 of IL-36γ signaling (HEK-Blue assay) [3] | Kd [4] | IC50 of IL-36α signaling (HEK-Blue assay) [3] | IC50 of IL-1β signaling (HEK-Blue assay) [3]
h48D2 VH5:VL5 (antibody, human IgG1, kappa, L234A L235A, Humanized; also called VL5:VH5) heavy: not shown light: APVLTQSPATLEASVGDRVTITCQASESISTALAWYQQKPGQPPKLLIYKASTLPSGVPSRFSGSGSGTEFTLTISDLESDDAATYYCQQGFSSGNVHNAFGGGTEVVVKRTVAAPSVFIFPPSDEQLKSGTASVVCLLNNFYPREAKVQWKVDNALQSGNSQESVTEQDSKDSTYSLSSTLTLSKADYEKHKVYACEVTHQGLSSPVTKSFNRGEC | 0.0313 mg/L | 0.0276 mg/L | 6.3 nM | 1.23 nM | 11.1 nM | 0.192 nM | 1.68 nM | – | –
h48D2 VH5:VL1 (antibody, human IgG1, kappa, L234A L235A, V domains shown, Humanized; also called VL1:VH5) VH: QEQLEESGGGLVKPGGTLSLTCTVSGPSLSHFDITWIRQAPGSGLEWIGTISPGVSTYYASWAKSRVTISVDTSLNTVSLKLSSVTAADTATYFCARGGVGSSWKAFDLWGPGTLVTISS VL: DIVMTQSPSSLSASVGDRVTITCQASESISTALAWYQQKPGKAPKLLIYKASTLPSGVPSRFSGSGSGTDFTLTISSLQPEDFATYYCQQGFSSGNVHNAFGGGTKVVIKR | 0.0261 mg/L | 0.0248 mg/L | 2.14 nM | 3.14 nM | – | 3.1 nM | 2.75 nM | 0.286 nM | –
h48D2 VH1:VL1 (antibody, human IgG1, kappa, L234A L235A, V domains shown, Humanized; also called VL1:VH1) VH: EVQLEESGGGLVKPGGSLRLSCAASGPSLSHFDITWVRQAPGKGLEWVSTISPGVSTYYASWAKSRFTISRDNSKNTLYLQMNSLRAEDTAVYYCARGGVGSSWKAFDLWGRGTLVTVSS VL: DIVMTQSPSSLSASVGDRVTITCQASESISTALAWYQQKPGKAPKLLIYKASTLPSGVPSRFSGSGSGTDFTLTISSLQPEDFATYYCQQGFSSGNVHNAFGGGTKVVIKR | 0.0226 mg/L | 0.0181 mg/L | 227 nM | 254 nM | – | – | 30.3 nM | – | 51.6 nM
h48D2 VH1:VL2 (antibody, human IgG1, kappa, L234A L235A, V domains shown, Humanized; also called VL2:VH1) VH: EVQLEESGGGLVKPGGSLRLSCAASGPSLSHFDITWVRQAPGKGLEWVSTISPGVSTYYASWAKSRFTISRDNSKNTLYLQMNSLRAEDTAVYYCARGGVGSSWKAFDLWGRGTLVTVSS VL: QIVLTQSPATLSASVGDRVTITCQASESISTALAWYQQKPGKAPKLLIYKASTLPSGVPSRFSGSGSGTEFTLTISSLQPDDSATYYCQQGFSSGNVHNAFGQGTKLEIKR | 0.0198 mg/L | 0.0182 mg/L | 242 nM | – | – | – | 33.7 nM | – | 37.6 nM
h48D2 VH5:VL3 (antibody, human IgG1, kappa, L234A L235A, V domains shown, Humanized; also called VL3:VH5) VH: QEQLEESGGGLVKPGGTLSLTCTVSGPSLSHFDITWIRQAPGSGLEWIGTISPGVSTYYASWAKSRVTISVDTSLNTVSLKLSSVTAADTATYFCARGGVGSSWKAFDLWGPGTLVTISS VL: DILLTQTPSVVSASVGDRVTITCQASESISTALAWYQQKPGQAPRLLIYKASTLPSGVPSRFRGSGSGTDFTLTITSLQPEDFATYYCQQGFSSGNVHNAFGGGTRLEIKR | 0.0288 mg/L | 0.0249 mg/L | 4.45 nM | 2.72 nM | 17.4 nM | 0.167 nM | 2.33 nM | 0.0779 nM | –
h48D2 VH5:VL2 (antibody, human IgG1, kappa, L234A L235A, V domains shown, Humanized; also called VL2:VH5) VH: QEQLEESGGGLVKPGGTLSLTCTVSGPSLSHFDITWIRQAPGSGLEWIGTISPGVSTYYASWAKSRVTISVDTSLNTVSLKLSSVTAADTATYFCARGGVGSSWKAFDLWGPGTLVTISS VL: QIVLTQSPATLSASVGDRVTITCQASESISTALAWYQQKPGKAPKLLIYKASTLPSGVPSRFSGSGSGTEFTLTISSLQPDDSATYYCQQGFSSGNVHNAFGQGTKLEIKR | 0.0218 mg/L | 0.0231 mg/L | 3.77 nM | 0.647 nM | – | 0.253 nM | 4.27 nM | – | –
h48D2 VH1:VL4 (antibody, human IgG1, kappa, L234A L235A, V domains shown, Humanized; also called VL4:VH1) VH: EVQLEESGGGLVKPGGSLRLSCAASGPSLSHFDITWVRQAPGKGLEWVSTISPGVSTYYASWAKSRFTISRDNSKNTLYLQMNSLRAEDTAVYYCARGGVGSSWKAFDLWGRGTLVTVSS VL: ELVMTQSPSSVSASVGDRVTITCQASESISTALAWYQQKPGKAPKLLIYKASTLPSGVPSRFSGSGSGTDFTLTINSLQPEDFATYYCQQGFSSGNVHNAFGGGTKVEIKR | 0.02 mg/L | 0.019 mg/L | 347 nM | – | – | – | 42.9 nM | – | 14.6 nM
h48D2 VH2:VL1 (antibody, human IgG1, kappa, L234A L235A, V domains shown, Humanized; also called VL1:VH2) VH: EVQLVESGGALVQPGGSLRLSCIVSGPSLSHFDITWFRQAPGKGLEWVATISPGVSTYYASWAKSRFTISTDTSKNTLFLQMDSLRAEDTAVYYCARGGVGSSWKAFDLWGPGTLVTVSS VL: DIVMTQSPSSLSASVGDRVTITCQASESISTALAWYQQKPGKAPKLLIYKASTLPSGVPSRFSGSGSGTDFTLTISSLQPEDFATYYCQQGFSSGNVHNAFGGGTKVVIKR | 0.0279 mg/L | 0.0238 mg/L | ~43800 nM | – | – | – | 13.2 nM | – | 2.75 nM
h48D2 VH1:VL3 (antibody, human IgG1, kappa, L234A L235A, V domains shown, Humanized; also called VL3:VH1) VH: EVQLEESGGGLVKPGGSLRLSCAASGPSLSHFDITWVRQAPGKGLEWVSTISPGVSTYYASWAKSRFTISRDNSKNTLYLQMNSLRAEDTAVYYCARGGVGSSWKAFDLWGRGTLVTVSS VL: DILLTQTPSVVSASVGDRVTITCQASESISTALAWYQQKPGQAPRLLIYKASTLPSGVPSRFRGSGSGTDFTLTITSLQPEDFATYYCQQGFSSGNVHNAFGGGTRLEIKR | 0.018 mg/L | 0.0201 mg/L | 231 nM | 195 nM | – | – | 35 nM | – | 17.2 nM
h48D2 VH3:VL1 (antibody, human IgG1, kappa, L234A L235A, V domains shown, Humanized; also called VL1:VH3) VH: EVQLLESGGGLVLPGGSLRLSCAASGPSLSHFDITWVRQAPGKGLEWVSTISPGVSTYYASWAKSRFTISRDNSKNTLYLQMSSLRAEDTAVYYCARGGVGSSWKAFDLWGLGTTVTVSS VL: DIVMTQSPSSLSASVGDRVTITCQASESISTALAWYQQKPGKAPKLLIYKASTLPSGVPSRFSGSGSGTDFTLTISSLQPEDFATYYCQQGFSSGNVHNAFGGGTKVVIKR | 0.0294 mg/L | 0.0257 mg/L | – | ~87500 nM | – | – | 28 nM | – | 9.54 nM
